Target: Transforming growth factor β-1 (TGFβ-1) (UniProt P01137)
Experiment: ELISA of cell-culture supernatant with anti-TGFβ-1 antibody after acid activation (latent complex formation/secretion)
Settings: HEK293T cells transfected, supernatant after 48 h; acid-activated (short incubation with HCl); parent: est. 1.0; read off a plot

| response (Normalized OD450) | Substance |
| --- | --- |
| 0.6 | LAP of wild-type LTGFβ-1 C4S (full-length LTGFβ-1 expressed in HEK-293T cells) (from UniProt P01137) E113P |
| 0.18 | LAP of wild-type LTGFβ-1 C4S (full-length LTGFβ-1 expressed in HEK-293T cells) (from UniProt P01137) L111P |
| 0.53 | LAP of wild-type LTGFβ-1 C4S (full-length LTGFβ-1 expressed in HEK-293T cells) (from UniProt P01137) S109P |
